In patent publication US11994512B2, “Single-cell genomic methods to generate ex vivo cell systems that recapitulate in vivo biology with improved fidelity” (Massachusetts Institute of Technology, priority 2018, dated 2024):

B1: P19246 (protein, UniProt P19246 1-1090, looked up)
chain: MMSFGSADALLGAPFAPLHGGGSLHYSLSRKAGPGGTRSAAGSSSGFHSWARTSVSSVSASPSRFRGAASSTDSLDTLSNGPEGCVVAAVAARSEKEQLQALNDRFAGYIDKVRQLEAHNRSLEGEAAALRQQQAGRAAMGELYEREVREMRGAVLRLGAARGQLRLEQEHLLEDIAHVRQRLDEEARQREEAEAAARALARFAQEAEAARVELQKKAQALQEECGYLRRHHQEEVGELLGQIQGCGAAQAQAQAEARDALKCDVTSALREIRAQLEGHAVQSTLQSEEWFRVRLDRLSEAAKVNTDAMRSAQEEITEYRRQLQARTTELEALKSTKESLERQRSELEDRHQADIASYQDAIQQLDSELRNTKWEMAAQLREYQDLLNVKMALDIEIAAYRKLLEGEECRIGFGPSPFSLTEGLPKIPSISTHIKVKSEEMIKVVEKSEKETVIVEGQTEEIRVTEGVTEEEDKEAQGQEGEEAEEGEEKEEEEGAAATSPPAEEAASPEKETKSRVKEEAKSPGEAKSPGEAKSPAEAKSPGEAKSPGEAKSPGEAKSPAEPKSPAEPKSPAEAKSPAEPKSPATVKSPGEAKSPSEAKSPAEAKSPAEAKSPAEAKSPAEAKSPAEAKSPAEAKSPATVKSPGEAKSPSEAKSPAEAKSPAEAKSPAEAKSPAEVKSPGEAKSPAEPKSPAEAKSPAEVKSPAEAKSPAEVKSPGEAKSPAAVKSPAEAKSPAAVKSPGEAKSPGEAKSPAEAKSPAEAKSPIEVKSPEKAKTPVKEGAKSPAEAKSPEKAKSPVKEDIKPPAEAKSPEKAKSPVKEGAKPPEKAKPLDVKSPEAQTPVQEEAKHPTDIRPPEQVKSPAKEKAKSPEKEEAKTSEKVAPKKEEVKSPVKEEVKAKEPPKKVEEEKTLPTPKTEAKESKKDEAPKEAPKPKVEEKKETPTEKPKDSTAEAKKEEAGEKKKAVASEEETPAKLGVKEEAKPKEKTETTKTEAEDTKAKEPSKPTETEKPKKEEMPAAPEKKDTKEEKTTESRKPEEKPKMEAKVKEDDKSLSKEPSKPKTEKAEKSSSTDQKESQPPEKTTEDKATKGEK
modifications: full-length
B2: P23881 (protein, UniProt P23881 1-347, looked up)
chain: MGLEEELLRIAKKLEKMVSRKKTEGALDLLKKLNSCQMSIQLLQTTRIGVAVNGVRKHCSDKEVVSLAKVLIKNWKRLLDSPRTTKGEREEREKAKKEKGLGCSDWKPEAGLSPPRKKGGGEPKTRRDSVDSRSSTTSSPKRPSLERSNSSKSKVETPTTPSSPSTPTFAPAVCLLAPCYLTGDSVRDKCVEMLSAALKAEDNFKDYGVNCDKLASEIEDHIYQELKSTDMKYRNRVRSRISNLKDPRNPGLRRNVLSGAISPELIAKMTAEEMASDELRELRNAMTQEAIREHQMAKTGGTTTDLLRCSKCKKKNCTYNQVQTRSADEPMTTFVLCNECGNRWKFC
modifications: full-length
B3: P19467 (protein, UniProt P19467 1-573, looked up)
chain: MKGFLLLSLSLLLVTVGSSSQASSTTSSSGGTSPPTTVQSQSPGSSSQASTTTSSSGGASPPTTVQSQSPGSSSQASTTTSSSGGASPPTTVQSQSPGSSSQASTTTSSSGGASPPTTVQSQSPGSSSQASTTTSSSGGASPPTTVQSQSPGSSSQASTTTSSSGGASPPTTVQSQSPGSSSQVSTTTSSSGGASPPTTVQSQSPGSSSQPGPTQPSGGASSSTVPSGGSTGPSDLCNPNPCKGTASCVKLHSKHFCLCLEGYYYNSSLSSCVKGTTFPGDISMSVSETANLEDENSVGYQELYNSVTDFFETTFNKTDYGQTVIIKVSTAPSRSARSAMRDATKDVSVSVVNIFGADTKETEKSVSSAIETAIKTSGNVKDYVSINLCDHYGCVGNDSSKCQDILQCTCKPGLDRLNPQVPFCVAVTCSQPCNAEEKEQCLKMDNGVMDCVCMPGYQRANGNRKCEECPFGYSGMNCKDQFQLILTIVGTIAGALILILLIAFIVSARSKNKKKDGEEQRLIEDDFHNLRLRQTGFSNLGADNSIFPKVRTGVPSQTPNPYANQRSMPRPDY
modifications: full-length
B4: P31362 (protein, UniProt P31362 1-431, looked up)
chain: MVNLEPMHTEIKMSGDVADSTDTRSTFGQVEPGNDRNGLDFNRQIKTEDLGDSLQQTLSHRPCHLSQGPTMMPGNQMSGDMASLHPLQQLVLVPGHLQSVSQFLLSQTPPGQQGLQPNLLSFPQQQSTLLLPQTGPGLASQAVGRPGLSGSSLEPHLDAPQHLPGPKHLPGPGGNDEPTDLEELEKFAKTFKQRRIKLGFTQGDVGLAMGKLYGNDFSQTTISRFEALNLSFKNMCKLKPLLEKWLNDAESSPSDPSASTPSSYPTLSEVFGRKRKKRTSIETNIRLTLEKRFQDNPKPSSEEISMIAEQLSMEKEVVRVWFCNRRQKEKRINCPVATPVKPPIYNSRLVSPSGSLGPLSVPPVHSTMPGTVTSSCSPGNNSRPSSPGSGLHASSPTASQNNSKAAMNSSSSSSFNSSGSWYRWNHPTYLH
modifications: full-length
B5: P11725 (protein, UniProt P11725 1-354, looked up)
chain: MLSNLRILLNNAALRKGHTSVVRHFWCGKPVQSQVQLKGRDLLTLKNFTGEEIQYMLWLSADLKFRIKQKGEYLPLLQGKSLGMIFEKRSTRTRLSTETGFALLGGHPSFLTTQDIHLGVNESLTDTARVLSSMTDAVLARVYKQSDLDTLAKEASIPIVNGLSDLYHPIQILADYLTLQEHYGSLKGLTLSWIGDGNNILHSIMMSAAKFGMHLQAATPKGYEPDPNIVKLAEQYAKENGTKLSMTNDPLEAARGGNVLITDTWISMGQEDEKKKRLQAFQGYQVTMKTAKVAASDWTFLHCLPRKPEEVDDEVFYSPRSLVFPEAENRKWTIMAVMVSLLTDYSPVLQKPKF
modifications: full-length
B6: P0C027 (protein, UniProt P0C027 1-164, looked up)
chain: MKCKPNQTRTYDPEGFKKRAACLCFRSEREDEVLLVSSSRYPDRWIVPGGGMEPEEEPDGAAVREVYEEAGVKGKLGRLLGVFEQNQDRKHRTYVFVLTVTELLEDWEDSVSIGRKREWFKIEDAIKVLQCHKPVHAEYLEKLKLGGSPTNGNSAAPSPPESEP
modifications: full-length
B7: P27600 (protein, UniProt P27600 1-379, looked up)
chain: MSGVVRTLSRCLLPAEAGARERRAGAARDAEREARRRSRDIDALLARERRAVRRLVKILLLGAGESGKSTFLKQMRIIHGREFDQKALLEFRDTIFDNILKGSRVLVDARDKLGIPWQHSENEKHGMFLMAFENKAGLPVEPATFQLYVPALSALWRDSGIREAFSRRSEFQLGESVKYFLDNLDRIGQLNYFPSKQDILLARKATKGIVEHDFVIKKIPFKMVDVGGQRSQRQKWFQCFDGITSILFMVSSSEYDQVLMEDRRTNRLVESMNIFETIVNNKLFFNVSIILFLNKMDLLVEKVKSVSIKKHFPDFKGDPHRLEDVQRYLVQCFDRKRRNRSKPLFHHFTTAIDTENIRFVFHAVKDTILQENLKDIMLQ
modifications: full-length
B8: P06728 (protein, UniProt P06728 1-395, looked up)
chain: MFLKAAVLTLALVAITGTRAEVTSDQVANVVWDYFTQLSNNAKEAVEQFQKTDVTQQLSTLFQDKLGDASTYADGVHNKLVPFVVQLSGHLAQETERVKEEIKKELEDLRDRMMPHANKVTQTFGENMQKLQEHLKPYAVDLQDQINTQTQEMKLQLTPYIQRMQTTIKENVDNLHTSMMPLATNLKDKFNRNMEELKGHLTPRANELKATIDQNLEDLRRSLAPLTVGVQEKLNHQMEGLAFQMKKNAEELQTKVSAKIDQLQKNLAPLVEDVQSKVKGNTEGLQKSLEDLNRQLEQQVEEFRRTVEPMGEMFNKALVQQLEQFRQQLGPNSGEVESHLSFLEKSLREKVNSFMSTLEKKGSPDQPQALPLPEQAQEQAQEQAQEQVQPKPLES
modifications: full-length
B9: P18242 (protein, UniProt P18242 1-410, looked up)
chain: MKTPGVLLLILGLLASSSFAIIRIPLRKFTSIRRTMTEVGGSVEDLILKGPITKYSMQSSPKTTEPVSELLKNYLDAQYYGDIGIGTPPQCFTVVFDTGSSNLWVPSIHCKILDIACWVHHKYNSDKSSTYVKNGTSFDIHYGSGSLSGYLSQDTVSVPCKSDQSKARGIKVEKQIFGEATKQPGIVFVAAKFDGILGMGYPHISVNNVLPVFDNLMQQKLVDKNIFSFYLNRDPEGQPGGELMLGGTDSKYYHGELSYLNVTRKAYWQVHMDQLEVGNELTLCKGGCEAIVDTGTSLLVGPVEEVKELQKAIGAVPLIQGEYMIPCEKVSSLPTVYLKLGGKNYELHPDKYILKVSQGGKTICLSGFMGMDIPPPSGPLWILGDVFIGSYYTVFDRDNNRVGFANAVVL
modifications: full-length
B10: P30681 (protein, UniProt P30681 1-210, looked up)
chain: MGKGDPNKPRGKMSSYAFFVQTCREEHKKKHPDSSVNFAEFSKKCSERWKTMSAKEKSKFEDLAKSDKARYDREMKNYVPPKGDKKGKKKDPNAPKRPPSAFFLFCSENRPKIKIEHPGLSIGDTAKKLGEMWSEQSAKDKQPYEQKAAKLKEKYEKDIAAYRAKGKSEAGKKGPGRPTGSKKKNEPEDEEEEEEEEEEEDDEEEEEDEE
modifications: full-length

tested on: intracellular proteome of ENR+CD and ENR organoids; experiment: LC-MS/MS TMT proteomics of ENR+CD versus ENR organoids; assay type: cell-based, C57BL/6 mice; details: protein abundance, ENR+CD versus ENR organoids; aggregate of the four sample pairs

Molecule	Average logFC
B1	1.284
B2	−1.33
B3	1.199
B4	−1.897
B5	−1.477
B6	1.134
B7	−2.195
B8	−1.57
B9	1.296
B10	−1.315

same assay, conditions: protein abundance, ENR+CD versus ENR organoids; replicate M1-1; log2 ratio

Molecule	M1-1 Log2 Median Normalized
B1	1.432
B2	−1.331
B3	1.437
B4	−1.567
B5	−1.478
B6	1.368
B7	−1.957
B8	−1.343
B9	1.508
B10	−1.316

same assay, conditions: protein abundance, ENR+CD versus ENR organoids; replicate M1-2; log2 ratio

Molecule	M1-2 Log2 Median Normalized
B1	1.357
B2	−1.172
B3	0.978
B4	−1.082
B5	−1.458
B6	1.133
B7	−1.145
B8	−2.171
B9	1.211
B10	−1.094

same assay, conditions: protein abundance, ENR+CD versus ENR organoids; replicate M2-1; log2 ratio

Molecule	M2-1 Log2 Median Normalized
B1	1.1695
B2	−1.7775
B3	1.3955
B4	−2.3845
B5	−2.2695
B6	0.8135
B7	−2.8495
B8	−1.8605
B9	0.9875
B10	−1.2715

same assay, conditions: protein abundance, ENR+CD versus ENR organoids; replicate M2-2; log2 ratio

Molecule	M2-2 Log2 Median Normalized
B1	1.176
B2	−1.12
B3	0.984
B4	−2.554
B5	−1.132
B6	1.192
B7	−2.827
B8	−0.907
B9	1.479
B10	−1.62

same assay, conditions: up = enriched in ENR+CD, down = enriched in ENR; FDR<0.05 and log fold change cut-off

Molecule	change
B1	up
B2	down
B3	up
B4	down
B5	down
B6	up
B7	down
B8	down
B9	up
B10	down
